Laboratory results as given in paper PMC6199252, “Characterization and improved properties of Glutamine synthetase from Providencia vermicola by site-directed mutagenesis” (Scientific Reports, 2018).

Biological target: the molecule itself
Test: SEC; tag-free purified protein on Superose 6 10/300 GL, 25 mM Tris-HCl pH 7.5, 150 mM NaCl; oligomer judged from the elution volume; data not shown

B1: Glutamine synthetase from Providencia vermicola (enzyme, UniProt A0AAX3RWL7 1-469, looked up)
chain: MSSEHVLSLIEEHKIKFIDLRFTDTKGKEQHITIPAHQVNEDFFEEGKMFDGSSIGGWKGINESDMVLMPDPSTAMLDPFFADPTLIIRCDILEPGTMQGYDRDPRSISQRAEDFLRSSGIADTVLFGPEPEFFIFDDIRFGNSMHSSYYHIDDIEAAWNTGTKYEGGNKGHRPGVKGGYFPVPPVDSSQDLRSAMCTTMEEMGLVVEAHHHEVATAGQNEVACRFNTMTKKADETQIYKYVVHNVAHAYGKTATFMPKPLVGDNGSGMHCHMSLSKDGINLFAGDKYGGLSEMALYYIGGIIKHARALNAFTNPTTNSYKRLVPGFEAPVMLAYSARNRSASIRIPVVASTKARRIEVRFPDPAANPYLAFAAQLMAGLDGIINKIHPGDAMDKNLYDLPPEEAKEIPTVAGSLEEALNELDKNREFLTRGGVFTNDAIDAYIELLRNDIQRVRMTPHPLEFEMYYSV
notes: Glutamine synthetase (GSI beta type, EC 6.3.1.2) of Providencia vermicola strain CGS6, cloned from genomic DNA; ORF of 1410 base pairs encoding 469 amino acids; Cloned between BamHI and XhoI of pGEX-6P-1; also called PveGS; GS; source: E. coli BL21 (DE3), pGEX-6p-1-PveGS, purified (GST Gene Fusion System, eluted from the GST tag by 3C protease); copies: 12
stoichiometry N: 12
